This sample holds only a part of the variants without activity.
How the values were obtained:
biotinyl-Val-oxazolone = test: self-aminoacylation, catalytic enhancement (BVO) (fold over background); higher = more active; k-Seq, kA / k0A0; sequences stand for … in GGGAAUGGAUCCACAUCUACGAAUUC…UUCACUGCAGACUUGACGAAGCUG
Method in brief: (§1)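 Each biotinyl-aminoacyl-oxazolone, at 2–1250 μM, was incubated with mutagenized RNA pools (0.43 μM) carrying a 21-nt variable region. The 50 μL reactions contained HEPES/NaCl/KCl/MgCl2/CaCl2 buffer with 5% acetonitrile at pH 6.9–7.0 and ran for 90 minutes at room temperature. After streptavidin capture, RNA was measured by qPCR in triplicate and by Illumina sequencing, and catalytic enhancement was calculated as median kA over the uncatalyzed rate from a pseudo-first-order fit of per-sequence fraction reacted.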

biotinyl-Phe-oxazolone = test: self-aminoacylation, catalytic enhancement (BFO) (fold over background); higher = more active; k-Seq, kA / k0A0; sequences stand for … in GGGAAUGGAUCCACAUCUACGAAUUC…UUCACUGCAGACUUGACGAAGCUG
Method in brief: as §1

biotinyl-Leu-oxazolone = test: self-aminoacylation, catalytic enhancement (BLO) (fold over background); higher = more active; k-Seq, kA / k0A0; sequences stand for … in GGGAAUGGAUCCACAUCUACGAAUUC…UUCACUGCAGACUUGACGAAGCUG
Method in brief: as §1

biotinyl-Met-oxazolone = test: self-aminoacylation, catalytic enhancement (BMO) (fold over background); higher = more active; k-Seq, kA / k0A0; sequences stand for … in GGGAAUGGAUCCACAUCUACGAAUUC…UUCACUGCAGACUUGACGAAGCUG
Method in brief: as §1

biotinyl-Ile-oxazolone = test: self-aminoacylation, catalytic enhancement (BIO) (fold over background); higher = more active; k-Seq, kA / k0A0; sequences stand for … in GGGAAUGGAUCCACAUCUACGAAUUC…UUCACUGCAGACUUGACGAAGCUG
Method in brief: as §1

biotinyl-Trp-oxazolone = test: self-aminoacylation, catalytic enhancement (BWO) (fold over background); higher = more active; k-Seq, kA / k0A0; sequences stand for … in GGGAAUGGAUCCACAUCUACGAAUUC…UUCACUGCAGACUUGACGAAGCUG
Method in brief: as §1

Row | Sequence | self-aminoacylation (biotinyl-Val-oxazolone) | self-aminoacylation (biotinyl-Phe-oxazolone) | self-aminoacylation (biotinyl-Leu-oxazolone) | self-aminoacylation (biotinyl-Met-oxazolone) | self-aminoacylation (biotinyl-Ile-oxazolone) | self-aminoacylation (biotinyl-Trp-oxazolone)
1 | CUACUUCAAACAAUCGUUAUG [Fam1A.1 aminoacylation ribozyme variant] | 0.627 | 0.899 | 0.523 | 0.48 | 0.683 | 0.59
2 | ACUCACCUAGAUCAUCGGGUG [Fam2.2 aminoacylation ribozyme variant] | 3.13 | 26.9 | 3.38 | 2.99 | 2.9 | 5.49
3 | AAGUUUGCUAAUAUCCGCAAG [Fam3.1 aminoacylation ribozyme variant] | 0.886 | 1.18 | 0.845 | 0.725 | 0.911 | 0.739
4 | CCACCCUUCGAGCAAUCGGUC [Fam1B.1 aminoacylation ribozyme variant] | 2.06 | 0.944 | 1.34 | 1.94 | 1.49 | 2.58
5 | CCAUACUUCAAGCAAUUGGUC [Fam1B.1 aminoacylation ribozyme variant] | 0.762 | 1.13 | 0.667 | 0.689 | 0.743 | 0.625
6 | AUUCACCUAGAUCAUGGGGUG [Fam2.2 aminoacylation ribozyme variant] | 2.61 | 31.5 | 6.83 | 5.3 | 3.07 | 4.68
7 | AUUCACCUAGGUCACCGCGUG [Fam2.2 aminoacylation ribozyme variant] | 6.86 | 85.2 | 18.1 | 12.6 | 7.2 | 10.9
8 | AUUCAGGUAGGUCAUCGGGUG [Fam2.2 aminoacylation ribozyme variant] | 4.23 | 30.7 | 5.83 | 4.59 | 3.68 | 5.12
9 | AUUACCCAGGUCAUCGGGUGA [Fam2.1 aminoacylation ribozyme variant] | 7.25 | 75.2 | 12.6 | 11.5 | 5.86 | 11
10 | CUACUUCAAACAAUCAGUCCG [Fam1A.1 aminoacylation ribozyme variant] | 0.783 | 10.8 | 0.623 | 0.753 | 0.632 | 4.05
11 | ACUACCCUGGUCAUCGCGUGA [Fam2.1 aminoacylation ribozyme variant] | 12.1 | 163 | 21.5 | 17.9 | 8.88 | 19.3
12 | AUUACCCUGCUAAUCGAGUGA [Fam2.1 aminoacylation ribozyme variant] | 1.58 | 11.2 | 2.41 | 2.41 | 1.44 | 3.01
13 | ACGUUUGCUAAUAGGCGCAAG [Fam3.1 aminoacylation ribozyme variant] | 1.61 | 5.88 | 1.67 | 1.35 | 1.94 | 0.911
14 | AUUCACCUUGGUCAGCGGGUG [Fam2.2 aminoacylation ribozyme variant] | 3.16 | 25.6 | 5.32 | 3.99 | 2.71 | 3.71
15 | CUACUUCAAACAAGCCGUCUG [Fam1A.1 aminoacylation ribozyme variant] | 0.746 | 0.59 | 0.872 | 0.925 | 0.78 | 0.926
16 | AAGUUUGCUAAUCGUCACAAG [Fam3.1 aminoacylation ribozyme variant] | 0.978 | 1.3 | 0.881 | 0.828 | 0.966 | 0.982
17 | CCGCACUUCAAGCAAUCAGUC [Fam1B.1 aminoacylation ribozyme variant] | 0.859 | 18.8 | 0.943 | 0.798 | 0.854 | 7.12
18 | AUUCACCUAGGUCAUCGGGAA [Fam2.2 aminoacylation ribozyme variant] | 4.14 | 26 | 9.17 | 5.51 | 4.54 | 6.07
19 | AUUACCCUGGCCAUCGAGCGA [Fam2.1 aminoacylation ribozyme variant] | 1.93 | 9.68 | 1.66 | 1.61 | 2.02 | 2.39
20 | CUACUUAAAACAAGCGGUCUG [Fam1A.1 aminoacylation ribozyme variant] | 0.902 | 0.744 | 0.836 | 0.926 | 1.04 | 0.982
21 | AUUCAUCUGGGUCAUCGGGUG [Fam2.2 aminoacylation ribozyme variant] | 4.92 | 53.2 | 10.3 | 7.57 | 5.22 | 7.66
22 | AUUCCCCUAGGUCAUCGAGUG [Fam2.2 aminoacylation ribozyme variant] | 7.52 | 66.1 | 15 | 11 | 7.79 | 12.6
23 | AAUCACCUAGGUCAUCGAGUG [Fam2.2 aminoacylation ribozyme variant] | 2.86 | 7.56 | 4.65 | 3.92 | 3.52 | 3.26
24 | AAGUUUGCUAAAAGUCGCAAU [Fam3.1 aminoacylation ribozyme variant] | 1.17 | 1.15 | 0.929 | 1.37 | 1.24 | 1.69
25 | CCACACUUCAAGCGAUCGGUA [Fam1B.1 aminoacylation ribozyme variant] | 2.2 | 1.73 | 1.58 | 1.48 | 1.22 | 0.843
26 | AAGUUUGCUAUCAGUCGCAAG [Fam3.1 aminoacylation ribozyme variant] | 0.931 | 1.37 | 0.733 | 0.865 | 0.794 | 0.615

Row | Sequence | self-aminoacylation (biotinyl-Val-oxazolone) | self-aminoacylation (biotinyl-Phe-oxazolone) | self-aminoacylation (biotinyl-Leu-oxazolone) | self-aminoacylation (biotinyl-Met-oxazolone) | self-aminoacylation (biotinyl-Ile-oxazolone) | self-aminoacylation (biotinyl-Trp-oxazolone)
27 | CCAGACUUCAAGCAGUCGGUC [Fam1B.1 aminoacylation ribozyme variant] | 1.3 | 1.4 | 1.77 | 1.1 | 1.48 | 1.39
28 | AAGUUUGCUAAUAGUAUCAAG [Fam3.1 aminoacylation ribozyme variant] | 0.928 | 1.64 | 0.714 | 1.22 | 1 | 0.998
29 | GAGUUUGCUAAUUGUCGCAAG [Fam3.1 aminoacylation ribozyme variant] | 1.24 | 2.2 | 1.53 | 1.34 | 1.36 | 2.06
30 | AAGUUUGGUAUUAGUCGCAAG [Fam3.1 aminoacylation ribozyme variant] | 1.47 | 2.44 | 1.5 | 1.51 | 1.65 | 1.74
31 | CUACUUUAAACAAUCGGUUUG [Fam1A.1 aminoacylation ribozyme variant] | 0.8 | 0.922 | 0.776 | 0.786 | 0.824 | 0.724
32 | AUUACCCUAGUCAUCGCGUGA [Fam2.1 aminoacylation ribozyme variant] | 5.09 | 54.5 | 9.91 | 8.29 | 4.26 | 10.1
33 | AUUCACGUAGGUCAACGGGUG [Fam2.2 aminoacylation ribozyme variant] | 3.15 | 21.1 | 4.96 | 3.95 | 2.77 | 4.47
34 | AUUGACCUACGUCAUCGGGUG [Fam2.2 aminoacylation ribozyme variant] | 3.81 | 40.6 | 6.43 | 4.72 | 3.13 | 5.9
35 | UUACUUCAAACCAUCGGUCUG [Fam1A.1 aminoacylation ribozyme variant] | 1.03 | 1.23 | 0.847 | 1.06 | 1.09 | 1.02
36 | AUUCACCUUGCUCAUCGGGUG [Fam2.2 aminoacylation ribozyme variant] | 2 | 10.7 | 2.63 | 1.94 | 1.84 | 2.01
37 | CUACUUCGAACAAUAGGUCUG [Fam1A.1 aminoacylation ribozyme variant] | 0.745 | 0.503 | 0.461 | 0.471 | 0.547 | 0.421
38 | CAUCUUCAAACAAUCGGUCUG [Fam1A.1 aminoacylation ribozyme variant] | 1.23 | 47 | 1.96 | 1.48 | 1.14 | 24.5
39 | AAGUUUGCUAACAGUCGCACG [Fam3.1 aminoacylation ribozyme variant] | 1.18 | 1.65 | 0.745 | 1.19 | 0.921 | 0.973
40 | ACUCACCUAGGUCAUCGGGUU [Fam2.2 aminoacylation ribozyme variant] | 5.06 | 31.3 | 11.3 | 8.19 | 5.92 | 6.68
41 | UUACUUCAGACAAUCGGUCUG [Fam1A.1 aminoacylation ribozyme variant] | 1.12 | 1.73 | 1.3 | 1.11 | 1.14 | 1.12
42 | CCACAUUUCAAGCGAUCGGUC [Fam1B.1 aminoacylation ribozyme variant] | 1.64 | 1.52 | 1.62 | 1.31 | 1.54 | 1.16
43 | AUUACCCUGGUCAUCGUAUGA [Fam2.1 aminoacylation ribozyme variant] | 1.02 | 0.633 | 0.814 | 0.984 | 0.789 | 0.855
44 | AGUACCCUGAUCAUCGAGUGA [Fam2.1 aminoacylation ribozyme variant] | 3.5 | 26.6 | 6.72 | 6.82 | 3.22 | 8.64
45 | CCACACUCCUAGCAAUCGGUC [Fam1B.1 aminoacylation ribozyme variant] | 1.04 | 0.91 | 0.746 | 0.631 | 0.943 | 0.519
46 | CUACUUCAAACAUACGGUCUG [Fam1A.1 aminoacylation ribozyme variant] | 0.763 | 0.561 | 0.662 | 0.565 | 0.776 | 0.556
47 | UUACUUCACACAAUCGGUCUG [Fam1A.1 aminoacylation ribozyme variant] | 1.28 | 1.66 | 1.17 | 1.06 | 1.27 | 1.03
48 | AAAAUUGCUAAUAGUCGCAAG [Fam3.1 aminoacylation ribozyme variant] | 1.73 | 2.58 | 1.78 | 1.33 | 1.93 | 3.04
49 | AUUACCCUAGUCAUCAAGUGA [Fam2.1 aminoacylation ribozyme variant] | 2.58 | 11.2 | 3.66 | 3.73 | 2.05 | 4.95
50 | AAGUUUGGUAAUAGUCGCAAU [Fam3.1 aminoacylation ribozyme variant] | 1.62 | 3.13 | 1.8 | 1.65 | 2.02 | 2.14
51 | CCACACUUCAAACAAUCGUUC [Fam1B.1 aminoacylation ribozyme variant] | 0.822 | 1.55 | 0.623 | 0.697 | 0.759 | 0.778
